# Experimental data taken from PMC3424236, “Siderocalin/Lcn2/NGAL/24p3 Does Not Drive Apoptosis Through Gentisic Acid Mediated Iron Withdrawal in Hematopoietic Cell Lines” (PLoS ONE, 2012).
# T1: Scn (Mus musculus, UniProt P11672)
# T1 construct: made in house; host or cells: E. coli
# T1 sequence (P11672 21-200): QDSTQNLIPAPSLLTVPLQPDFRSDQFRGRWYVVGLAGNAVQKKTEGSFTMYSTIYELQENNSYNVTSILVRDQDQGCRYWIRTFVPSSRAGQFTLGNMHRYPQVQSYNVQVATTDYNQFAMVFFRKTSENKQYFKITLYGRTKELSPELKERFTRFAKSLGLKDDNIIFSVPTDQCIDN
# Molecular target: T1, Scn
# Experiment: Binding of BOCT subdomains and loop peptides to Scn (SPR, SEC)
# Parameters: species or system murine
# Experimental: NTD^1–102 and CTD^477–520 were expressed recombinantly in E. coli, the former as a His-tagged, periplasmically-targeted construct and the latter as a cytoplasmically-targeted, cleavable GST-fusion (Figures 5C and 5D). Binding of NTD or CTD to Scn was assayed by SEC (e. g., Figure 5E) and SPR (e. g., Figure 5D). In Figure 5D, 2086 SPR response units (RUs) of Scn were amine-coupled to CM5 sensor chips (Biacore) following the manufacturer’s protocol. CTD analytes, at concentrations from 3.125 to 50 µM, were injected in duplicate, in random order, for one minute at a flow rate of 20 µl/min on a Biacore 3000 system. Sensorgrams were blank-corrected by the double-subtraction method, using a capped channel as blank. […] Peptides corresponding to predicted cell-surface loops of significant length (>6 residues) in either topology were synthesized commercially (Genscript) with N-terminal biotin groups:
# BOCT loop peptides were coupled to strepavidin-coated sensor chips and analyzed with Scn analytes using analogous methodology; as above, no quantifiable responses were detected (data not shown).
molecule,measurement,value
"NTD: BOCT N-terminal domain, residues 1 through 102, recombinantly expressed in E. coli (protein, left off: His tag, end not stated, state not stated, BOCT N-terminal domain, residues 1 through 102, recombinantly expressed in E. coli) MPSARFGRRGIVLLTLGLVGPCGVGGAAAGSSTGIMALRFLLGFLLAGVDLGVYLMRLELCDPTQRLRVALAGELVGVGGHFLFLGLALVSKDWRFLQRMIT","binding to Scn (SPR, SEC)",Comparable results
